The data set in a line: protease stability score; higher = more stable; yeast display proteolysis, trypsin and chymotrypsin.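 Further: log10 excess protease needed over predicted unfolded state with 0 meaning unfolded.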
“DDQEIAEQAARDFDTAVQEGDEDQIVRMADPNVQLQIGDERYRGREDLRKWIKDIRRQVDHVDVRVRDLKVQGEHVRARIEVQYTENGKTRRYQFEMTNNIHNGRVRMTQVNEK” showed a protease stability score of 0.948. With “DDQELAEDAQRQFQEVLKTGDPKRANELMDEDARLEVGDTQLHGRERVAKHLSDLRKQADHIDVRVDTIRVHNGRVDADVRIRITKNGQNREFRARLYFTVQGDKVKMKRLQES” the figure was 1.38. Regarding “DDQERREIAKNFQRGNEQVVKKLVDPNARIRVGDKTLHGRDQMSHVFKRLQEQVDHIDVKHYTISGEHIVIDAIFVINGKNIRMVIVVQVENGRVKRVDFKYTNEEQKKQLERDLS”, the protease stability score amounted to 0.004. “DDQEVKKLAHEVQKILEHGDPDQFADLFDKDARMTVGDKDLHGRERIRELAQRQQDRIDHVQLEEYQVHNGRVVLKMRVNVNGHDETINMTLHQRNGKVKEFTQQSR” had a protease stability score of 0.071. With “DDQHHAERFVEHVLKQLQTGNENDISKMVDENARVEYGDEEITGRESVVKHLIKEARRVDSIDLKVKSVSKEGDKINVTLVAVLDVNGRKDKRQFRVVMAKQGDKTNIISQHEK” the figure was 0.965.

“DDQHQQKFAEEFNKNLEKGDFHRIAQMADENVRVRYGDKSVNGREHMSQFMKELRDRVDHMEIKDFHASNGKITITFVVNVNGKNITLHISIRVSNGRIHEVSLDPDQLKSLES” came in with a protease stability score of 2. With “DDQKARRLVERFIRALQHGDEDLARQLFDKNAKINIGDKTLTGREDVAKYVHHVHRHVDDVSVKSIQVDGDKAEVRVQFDINGKQHQMTFSAKYRNGRVQSATYKSQ” the figure was 0.524. With “DDQKEIEKVLEVIKRMDTGDEKNVKEMFDPNARASVGERTYHGREDIQSFARELKERVDHVRIDSMSAHGDKATVDLRMNENGRTERYSVRVQIHNGRARHLRYTTK” the figure was -0.219; with “DDQKKKELMQKMVEAYLSGHHEEVEKLGKDDGKVEAGDRKYEGSEQARKAAKQFKTYGVELRITDMQQDGDRLDVKAEAHMGGVTWEFTATVTADGGKVDKIQIDASDDAKKAIKDG”, 0.725; with “DDQKNLEKWVRDFQEVNKTGDPDRFRNLFPPNAEMTIGDKTIKGSETVREYMEHLVNRYDHLDVQVESIHAEGDKLTVKLRLVFNTNGKNDQYVNKVLLDDHNGRLKAHEVHQE”, 0.7. With “DDQKTANHLNKQFKDVWTSGDEHRLQELMDPNVRVDVGDKRYKGDEQVNKYFIDLLRNVDHVDFDVKDMKARGEKVLLVVDIRVDINGKRHRFNARQIFTVEGDQARVKVYHDG” the figure was 0.653; with “DDQKVRVASELLKAIERGDPDQARELMDENAKMVIGETTFTGRDEAAKWISELKKHMRVQIQSVTFHDHNGQIVVNVTFEANINGDPFTMNLIVRVQVHNGRVQNVHYRLSEEQKRRLEQ”, 0.969; with “DDQLFRVLQELWKALQEGDHKHAIDQAPEDARFHVGEKNYHGMEDAAKHLAEFYKQIRVRIEIKRYEINGDSLNVHVVVQMNNNGKPERRRNVILAKLHNGRMLEMQVHDRE”, 0.064. Sequence “DDQLRKKVKTFIRVIQSGNTQEAKKLMDPNARYHVGDKTVDGMDQWATIMTKLKDEMRIQLNVTSVTATNGHIHVRVEVNVDVNGRPINVTVNVYFHIENGRIQRVHYQMDPDEFKHIQR” had a protease stability score of -0.135. With “DDQLSDQLDKARKQIEEGNFEQVREYVDPNVSVHVGDKSVHGREKYTHEILRKHQELRYKVEVTRVHVENGRLDVKAQETVNHNGRPESSRYVLDLNMHNGRLKHMTKSSDK” the figure was -0.321; with “DDQNLRSAVRRLVDGNEERAKDTLDENARVEVGEYNFHGREEAQKAFQTMQDRIDHINVKSYKYQGDKASVDMVVEFNGRSVKFVVVVRVHNGHLVNARVQFTDEHQHKRAKEMID”, -0.104.

Turning to “DDQQARDIAKELVKALQTGDPERFVELADPNARVEIGDKTYHGHDRMSEMIKTWHRDVDHIRIQDYRAKGDKIEIQFVLDINGKQNRLVMVVQVSNGRITVVFVRSG”, the protease stability score worked out at 1.35.

On to “DDQQKAKTHVRQVRDAATSNDPDEMRRLADENARFVVGDKEYEGRDQVRELVERERDNVDQVEIRLTDVEKRGDRLRLEVRVVWNHNGSHDHKILDMIVQNHNGTLRFVQLQQR”, for which the protease stability score was determined as 0.366. With “DDQRLRELNDTIAENIQSGDESKLSQLADPNVRLQIGDKEWHGREEMQKAWDELRRSADHIEIRSITAKGDHAVINAVLHHNGRTSQVRFDFSFHNGRIVRVSMHET” the figure was 1.48; with “DDQVAKMVRKLLRLEESGNEEELRKLADEEAEFVVGDKRYRGMTEYVQSVYHKKKEIRFKIITYSAEDDGDKIVVIIKMTNNHNGQPDTFRVKVVFVANNGNLKHANFRKRK”, 0.39; with “DDRDAERLVELWKTGDPDKFANHMRDDVRVQIGDKSVRGRDEAHKILERLRQQIDHWEIKDYEVHGERVIIHAVATVNGRHLNFVIVVQMHNGRIQSVQYKVTSEDDQHRIKKLLD”, 0.326. With “DDRDAKHFKEIMKHGNFEEMVRQADPNVTITIGDREVHGRHQAQKFVDTLNDRIDHYQVDEIDVKGEKITAEVAMVVNGVRVDFVIVMHFENGRIKSVRIEATNEHAHENFRRIHS” the figure was 0.561; with “DDRDEAHKLHEDYDRVMQTGDDDRVREMVDPNAKLRIGDQDLRGREELAELMKRQRDRADHVRIELRSVKVDGNKITMKLNFHLDHNGRTENTDATYHYEKDNGQWELKHAKVS”, -0.052. With “DDRDEEKLQEQRKIHENNDEDRRKELVDPNVKFDVGDRHYHGRETNSKKFVDENREMRVEVDIKRVTNDEDHLRFEAHVVIRNNGQPDTKKVRLEQRLDGDKLKMERQEDKR” the figure was 0.276; with “DDRDIERAKEMFKAIKTGDPDRLSELVDENARVKIGDKEWHGNTEWVEDLERKKKEMSVDLQIHKIEDRNGVAQIHMTRRMDHNGKPRSDKYVLFIRARNGRIVDVRAEERS”, 0.097. Sequence “DDRDIERMAKDYVRAIRTGDEEQIRRLMDKDVKYEIGDKTIHGRENWAKWVKNFRRHADHVRLKDMRVHGNKIDLNMEFQVNGEKKRQKYDIQVHNGRIKTVRIEDS” displayed a protease stability score of 1.47. With “DDRDIKQAADRFLEDIKTNNPENVRKLVDENARVQIGDKQYRGKERIQEAMEEWIKRVDHWRIEDIKIHGDQVHVKMRINVNGRNLTFIMVVSIKNGTLKTLTMNVTDTEKLREMLR” the figure was 1.27. With “DDRDKVKSLWKQMLTILRTGDHKRWNKLVDKDVKYNIGDKSIHGKEEAEKLVKKIKDKVDTVSQTIVDVQNHNGRIHLRLRMVNNFNGNHNTYEVNAQFEKKNGRVKMQNQTDN” the figure was 0.149. For “DDRDLEQLLRELVTIWKNGNFEDLSRQADPNVKFRVGDKTYHGREQASKLWKKLSDQADHWSVDSVQAKGDTLRLDFRATVNGHEVRMVYHARIQNGSITSWEIQYTSEELHTRVER”, the protease stability score was found to be 1.09. With “DDRDLETMVRLWRDNDSKRLKQNVDPNARIRYGNFEVHGREQVQKWIKLFRDRVDHNDIKRYQTTPGRLVMQLSATFNGVKVKFTMIVEFHNGNIRLIQINFTDEENMKHLVREVE” the figure was 1.55; with “DDRDLKRMADVLKTGDPDKLNENADKDAQVHVGNKRVHGREQFHEYQRRLREQIDHLHVKHIEITENKARIDYEFHVNGQKFSFTLTFQAHDGKLKRMSATFTSEEEEKRWDEIVD”, 0.302.

“DDRDRKKQMSKLIEIFKEGDPRKWMELLDENARIQIGDTRIRGREHASDWLKKLRDHVDSISIHDMEVDGNHIRVVIEVVIDGRSAVYKFVVHLKNGKVKHVDVSATSKEHENNMSR” displayed a protease stability score of 1.5.

The sequence “DDREEARKMLHKADRALNDGDPRSAQNLVDENAQVVYGDKRYSGDQQAADVMVSLRHQYDHLSLEIDRLRVDGNRVHVDATLTAQRNGSTLHSKLNFVFSKKNGRLRVSHLVIG” yielded a protease stability score of 0.183. The sequence “DDREIKELLQLMLDAIRDGNEQSASKMADENARVKVGDKKVHGREQIQELVKELKKNVDHFTVNDIKQQGDKASADAEMDVNGVTVHMEVRVQVHNGHVKHAEMTYRDEDQKRQFHQ” registered a protease stability score of -0.433.

Sequence “DDRELDHAKKVAERNDPDKLRKLADPNAHLTVGDKKIHGMHNAAQKVVSMWEQADHVDIKHVDQHNGRVRVEFRFVVNGREMEMVMRFEVKNGHIKRLQLEFTSEELQKKFDKLAD” showed a protease stability score of 0.57. “DDRELEDVQRVVETGDPDKLNDLADKDARMQVGDHKVRGSDQVRSLMDKLKKRIDHYDVKSITIRNGRLDATVVFVINGEEIEVRIVLRVHNGRLKEMSIHATSERVQTILKKAMS”: the protease stability score turned out to be 0.803. With “DDREMKKFAEQYARNLTRNDEDSLKDLFDENAEVTIGDKQVRGQEKIKSLLHQLHQQVDHFDLRRVDAQGDDIKIVVLWNHNGKHLNVTISMRVHNGRIKSATDHVRSEDDERKFKR” the figure was 0.569.

As to “DDREQAQKFMDLFEDAIKDGDPRQAEELAPPDAKARYGDKKLTGMHDIARHFIDEVKRVDHHRVTYKDIKNEGNKFVFTFVYTFKHNGQSDDKQVRVEAENHNGRLLVTSIHDT”, the protease stability score came to 0.724. With “DDRERAERYLRQVENALHTNDPRQLKNQADKDVKIEIGETDLHGTKDFVKMMKEIINRADHARFTVRSVRRHGDKMRVEFTAEVNHNGRRRTHTIRITLQLENGDVVLQSLRVE” the figure was 0.302.

“DDREVDKVEELLKTGDFLKMANRADKNARMQIGDKEYRGREHVQDAAKRLDRQVDTEKVTDLRTDGEKVLVHYIQHFDGQNLEVDVEFHFHNGRLQEVVFHVRDPKKQKEFDKRVG” registered a protease stability score of -0.235.

“DDREVVDRALKELRSILHEGDEEQMHRNFPPEASVKYGDTEYTGMESAAHLIIELRKRVDHMEQRVTTVNVRNGTVDVDMSADVRHNGREDSIKVKLILRISNGRAQLEQVINP” registered a protease stability score of 1.18. “DDRHEMKTALKQLIDAIRQGNPDTIMSLLDPNVTFTYGDQNIRGREHVNTELVHRRNRVDNVHVNLQDIDQDGEKLHARFQMVLRRNGRNDTRDMVLVAQVHNGKARIRRLHHG” displayed a protease stability score of 0.557.

“DDRHLHHRAREWAEQLKTNDEDELTKYVDPNARMRVGDKSVHGREKLQEQIHRDNERVDNVEIRSIRIENGTVNIRQVNDVNGRNDDFRVRMHIHNGQLKVNERHSP” registered a protease stability score of -0.38. With “DDRHLQQLASIAAKALRTGNPKDMKKLVDPNAKMHYGDKEVHGREQMADVLRRIRRDADHIDLRSYSADNGRISIDMDLRVNGKKVRIIVKAEVHNGKVTHVTVDTK” the figure was 0.766.

With “DDRHVQKRLKTFIHILRTGDPQKISNLVDPNAEIQVGDKEYHGRHEIRKLIEELKTRVDHIDVVDMKAEGDKARANLNVNVNGHDIRFVVQLVWDNGHVKSVRIKYRNERVERQEKG”, the protease stability score worked out at 1.61.

Take “DDRIKELADRFMNALQTNDPDKINNLVDPNAKITVGDKSVRGDEQINRTMDQRKRELRQDYDVRSVEVHGNTAIIDVHVTFEHNGEPHKEKQTIIIHVKNGRAVDIKITRHS”: the protease stability score was -0.326.

The sequence “DDRIRQVVEEWWKAVETNDPDKAKENVDKDVRVEVGDKQFRGSETLEKRIRDEKDHARVVVRMQSVSVHGDTVDVTYNVVVEVNGNPLRFKAQAFFRARNGRMQSIQFSFSKEDKKRVDG” had a protease stability score of 0.916.
